Experimental data as given in publication PMC6131520.

Molecular target: 3D8 IgG-N434D mutant (mouse | human)
Sequence (heavy, as listed by the source, chain 1 of 2): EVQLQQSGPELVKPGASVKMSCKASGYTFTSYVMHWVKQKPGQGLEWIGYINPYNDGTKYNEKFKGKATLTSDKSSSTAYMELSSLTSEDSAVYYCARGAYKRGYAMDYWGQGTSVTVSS
Sequence (light, as listed by the source, chain 2 of 2): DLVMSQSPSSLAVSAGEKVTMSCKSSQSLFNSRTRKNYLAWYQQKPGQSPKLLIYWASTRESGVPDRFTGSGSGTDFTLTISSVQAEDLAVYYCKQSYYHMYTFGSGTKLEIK

Q: “tripartite motif-containing 21 (TRIM21) (from UniProt P19474 1-475) (natural protein)” was tested. Which secretion of IL-8 and TNF-α by THP-1 cells treated with 5 μM IgG for 6 h (ELISA), against cells treated with wt 3D8 IgG did it give?
A: Its secretion of IL-8 and TNF-α by THP-1 cells treated with 5 μM IgG for 6 h (ELISA), against cells treated with wt 3D8 IgG is 40 % higher.
